According to paper PMC11574045, “A cofactor-induced repressive type of transcription factor condensation can be induced by synthetic peptides to suppress tumorigenesis” (The EMBO Journal, 2024):

Tested on: HEK293FT cells transfected with TF library
Assay: Screening of TF condensates based on fluorescent puncta
Assay type: cell-based
Conditions: Figure 1B numerical data; TF library screen, one value per transcriptional factor
How it was run: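 Condensate formation is scored as Alexa 488-labelled puncta after Flag- or GAL4-tag immunostaining of fixed HEK293FT cells expressing individual TFs, with a 12 h glucose-free or glucose-containing culture preceding fixation.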

Molecule	Z score of condensed fraction
CDX1 (protein, UniProt P47902 1-265, looked up) Homeobox protein CDX-1: MYVGYVLDKDSPVYPGPARPASLGLGPQAYGPPAPPPAPPQYPDFSSYSHVEPAPAPPTAWGAPFPAPKDDWAAAYGPGPAAPAASPASLAFGPPPDFSPVPAPPGPGPGLLAQPLGGPGTPSSPGAQRPTPYEWMRRSVAAGGGGGSGKTRTKDKYRVVYTDHQRLELEKEFHYSRYITIRRKSELAANLGLTERQVKIWFQNRRAKERKVNKKKQQQQQPPQPPMAHDITATPAGPSLGGLCPSNTSLLATSSPMPVKEEFLP	2.938
ZNF586 (protein, UniProt Q9NXT0 1-402, looked up) Zinc finger protein 586: MAAAAALRAPAQSSVTFEDVAVNFSLEEWSLLNEAQRCLYRDVMLETLTLISSLGCWHGGEDEAAPSKQSTCIHIYKDQGGHSGERPYECGEYRKLFKNKSCLTEPRRDHKHRNVRTGERPYECSKYGKLFHQKPTLHIHERFHTGQKTYECSECGKSFHQSSSLLQRQTLHTRERPYECIECGKAFAEKSSLINHRKVHSGAKRYECNECGKSFAYTSSLIKHRRIHTGERPYECSECGRSFAENSSLIKHLRVHTGERPYECVECGKSFRRSSSLLQHQRVHTRERPYECSECGKSFSLRSNLIHHQRVHTGERHECGQCGKSFSRKSSLIIHLRVHTGERPYECSDCGKSFAENSSLIKHLRVHTGERPYECIDCGKSFRHSSSFRRHQRVHTGMRPYK	0.1456
ZNF770 (protein, UniProt Q6IQ21 1-691, looked up) Zinc finger protein 770: MMAENNLKMLKIQQCVVANKLPRNRPYVCNICFKHFETPSKLARHYLIHTGQKPFECDVCHKTFRQLVHLERHQLTHSLPFKCSICQRHFKNLKTFVKHQQLHNETYQNNVKQVRRLLEAKQEKSMYGVYNTFTTEERWALHPCSKSDPMYSMKRRKNIHACTICGKMFPSQSKLDRHVLIHTGQRPFKCVLCTKSFRQSTHLKIHQLTHSEERPFQCCFCQKGFKIQSKLLKHKQIHTRNKAFRALLLKKRRTESRPLPNKLNANQGGFENGEIGESEENNPLDVHSIYIVPFQCPKCEKCFESEQILNEHSCFAARSGKIPSRFKRSYNYKTIVKKILAKLKRARSKKLDNFQSEKKVFKKSFLRNCDLISGEQSSEQTQRTFVGSLGKHGTYKTIGNRKKKTLTLPFSWQNMGKNLKGILTTENILSIDNSVNKKDLSICGSSGEEFFNNCEVLQCGFSVPRENIRTRHKICPCDKCEKVFPSISKLKRHYLIHTGQRPFGCNICGKSFRQSAHLKRHEQTHNEKSPYASLCQVEFGNFNNLSNHSGNNVNYNASQQCQAPGVQKYEVSESDQMSGVKAESQDFIPGSTGQPCLPNVLLESEQSNPFCSYSEHQEKNDVFLYRCSVCAKSFRSPSKLERHYLIHAGQKPFECSVCGKTFRQAPHWKRHQLTHFKERPQGKVVALDSVM	-0.4682
ZNF791 (protein, UniProt Q3KP31 1-576, looked up) Zinc finger protein 791: MDSVAFEDVSVSFSQEEWALLAPSQKKLYRDVMQETFKNLASIGEKWEDPNVEDQHKNQGRNLRSHTGERLCEGKEGSQCAENFSPNLSVTKKTAGVKPYECTICGKAFMRLSSLTRHMRSHTGYELFEKPYKCKECEKAFSYLKSFQRHERSHTGEKPYKCKQCGKTFIYHQPFQRHERTHIGEKPYECKQCGKALSCSSSLRVHERIHTGEKPYECKQCGKAFSCSSSIRVHERTHTGEKPYACKECGKAFISHTSVLTHMITHNGDRPYKCKECGKAFIFPSFLRVHERIHTGEKPYKCKQCGKAFRCSTSIQIHERIHTGEKPYKCKECGKSFSARPAFRVHVRVHTGEKPYKCKECGKAFSRISYFRIHERTHTGEKPYECKKCGKTFNYPLDLKIHKRNHTGEKPYECKECAKTFISLENFRRHMITHTGDGPYKCRDCGKVFIFPSALRTHERTHTGEKPYECKQCGKAFSCSSYIRIHKRTHTGEKPYECKECGKAFIYPTSFQGHMRMHTGEKPYKCKECGKAFSLHSSFQRHTRIHNYEKPLECKQCGKAFSVSTSLKKHMRMHNR	-0.6142
CDX2 (protein, UniProt Q99626 1-313, looked up) Homeobox protein CDX-2: MYVSYLLDKDVSMYPSSVRHSGGLNLAPQNFVSPPQYPDYGGYHVAAAAAAAANLDSAQSPGPSWPAAYGAPLREDWNGYAPGGAAAAANAVAHGLNGGSPAAAMGYSSPADYHPHHHPHHHPHHPAAAPSCASGLLQTLNPGPPGPAATAAAEQLSPGGQRRNLCEWMRKPAQQSLGSQVKTRTKDKYRVVYTDHQRLELEKEFHYSRYITIRRKAELAATLGLSERQVKIWFQNRRAKERKINKKKLQQQQQQQPPQPPPPPPQPPQPQPGPLRSVPEPLSPVSSLQASVPGSVPGVLGPTGGVLNPTVTQ	-0.211
ZNF567 (protein, UniProt Q8N184 1-647, looked up) Zinc finger protein 567: MAQGSVSFNDVTVDFTQEEWQHLDHAQKTLYMDVMLENYCHLISVGCHMTKPDVILKLERGEEPWTSFAGHTCLEENWKAEDFLVKFKEHQEKYSRSVVSINHKKLVKEKSKIYEKTFTLGKNPVNSKNLPPEYDTHGRILKNVSELIISNLNPARKRLSEYNGYGKSLLSTKQETTHPEVKSHNQSARAFSHNEVLMQYQKTETPAQSFGYNDCEKSFLQRGGLITHSRPYKGENPSVYNKKRRATNIEKKHTCNECGKSFCRKSVLILHQGIHSEEKPYQCHQCGNAFRRKSYLIDHQRTHTGEKPFVCNECGKSFRLKTALTDHQRTHTGEKSYECLQCRNAFRLKSHLIRHQRTHTGEKPYECNDCGKSFRQKTTLSLHQRIHTGEKPYICKECGKSFHQKANLTVHQRTHTGEKPYICNECGKSFSQKTTLALHEKTHNEEKPYICSECGKSFRQKTTLVAHQRTHTGEKSYECPHCGKAFRMKSYLIDHHRTHTGEKPYECNECGKSFSQKTNLNLHQRIHTGEKPYVCNECGKSFRQKATLTVHQKIHTGQKSYECPQCGKAFSRKSYLIHHQRTHTGEKPYKCSECGKCFRQKTNLIVHQRTHTGEKPYVCNECGKSFSYKRNLIVHQRTHKGENIEMQ	-0.7114
ZNF800 (protein, UniProt Q2TB10 1-664, looked up) Zinc finger protein 800: MPLRDKYCQTDHHHHGCCEPVYILEPGDPPLLQQPLQTSKSGIQQIIECFRSGTKQLKHILLKDVDTIFECKLCRSLFRGLPNLITHKKFYCPPSLQMDDNLPDVNDKQSQAINDLLEAIYPSVDKREYIIKLEPIETNQNAVFQYISRTDNPIEVTESSSTPEQTEVQIQETSTEQSKTVPVTDTEVETVEPPPVEIVTDEVAPTSDEQPQESQADLETSDNSDFGHQLICCLCRKEFNSRRGVRRHIRKVHKKKMEELKKYIETRKNPNQSSKGRSKNVLVPLSRSCPVCCKSFATKANVRRHFDEVHRGLRRDSITPDIATKPGQPLFLDSISPKKSFKTRKQKSSSKAEYNLTACKCLLCKRKYSSQIMLKRHMQIVHKITLSGTNSKREKGPNNTANSSEIKVKVEPADSVESSPPSITHSPQNELKGTNHSNEKKNTPAAQKNKVKQDSESPKSTSPSAAGGQQKTRKPKLSAGFDFKQLYCKLCKRQFTSKQNLTKHIELHTDGNNIYVKFYKCPLCTYETRRKRDVIRHITVVHKKSSRYLGKITASLEIRAIKKPIDFVLNKVAKRGPSRDEAKHSDSKHDGTSNSPSKKYEVADVGIEVKVTKNFSLHRCNKCGKAFAKKTYLEHHKKTHKANASNSPEGNKTKGRSTRSKALV	3.058
ZNF671 (protein, UniProt Q8TAW3 1-534, looked up) Zinc finger protein 671: MLSPVSRDASDALQGRKCLRPRSRRLPLPAAVRAHGPMAELTDSARGCVVFEDVFVYFSREEWELLDDAQRLLYHDVMLENFALLASLGIAFSRSRAVMKLERGEEPWVYDQVDMTSATEREAQRGLRPGCWHGVEDEEVSSEQSIFVAGVSEVRTLMAELESHPCDICGPILKDTLHLAKYHGGKARQKPYLCGACGKQFWFSTDFDQHQNQPNGGKLFPRKEGRDSVKSCRVHVPEKTLTCGKGRRDFSATSGLLQHQASLSSMKPHKSTKLVSGFLMGQRYHRCGECGKAFTRKDTLARHQRIHTGERPYECNECGKFFSQSYDLFKHQTVHTGERPYECSECGKFFRQISGLIEHRRVHTGERLYQCGKCGKFFSSKSNLIRHQEVHTGARPYVCSECGKEFSRKHTLVLHQRTHTGERPYECSECGKAFSQSSHLNVHWRIHSSDYECSRCGKAFSCISKLIQHQKVHSGEKPYECSKCGKAFTQRPNLIRHWKVHTGERPYVCSECGREFIRKQTLVLHQRVHAGEKL	-0.9445
ZNF581 (protein, UniProt Q9P0T4 1-197, looked up) Zinc finger protein 581: MLVLPSPCPQPLAFSSVETMEGPPRRTCRSPEPGPSSSIGSPQASSPPRPNHYLLIDTQGVPYTVLVDEESQREPGASGAPGQKKCYSCPVCSRVFEYMSYLQRHSITHSEVKPFECDICGKAFKRASHLARHHSIHLAGGGRPHGCPLCPRRFRDAGELAQHSRVHSGERPFQCPHCPRRFMEQNTLQKHTRWKHP	-0.1395
ZPF91 (protein, UniProt Q96JP5 2-570, looked up) E3 ubiquitin-protein ligase …: PGETEEPRPPEQQDQEGGEAAKAAPEEPQQRPPEAVAAAPAGTTSSRVLRGGRDRGRAAAAAAAAAVSRRRKAEYPRRRRSSPSARPPDVPGQQPQAAKSPSPVQGKKSPRLLCIEKVTTDKDPKEEKEEEDDSALPQEVSIAASRPSRGWRSSRTSVSRHRDTENTRSSRSKTGSLQLICKSEPNTDQLDYDVGEEHQSPGGISSEEEEEEEEEMLISEEEIPFKDDPRDETYKPHLERETPKPRRKSGKVKEEKEKKEIKVEVEVEVKEEENEIREDEEPPRKRGRRRKDDKSPRLPKRRKKPPIQYVRCEMEGCGTVLAHPRYLQHHIKYQHLLKKKYVCPHPSCGRLFRLQKQLLRHAKHHTDQRDYICEYCARAFKSSHNLAVHRMIHTGEKPLQCEICGFTCRQKASLNWHMKKHDADSFYQFSCNICGKKFEKKDSVVAHKAKSHPEVLIAEALAANAGALITSTDILGTNPESLTQPSDGQGLPLLPEPLGNSTSGECLLLEAEGMSKSYCSGTERVSLMADGKIFVGSGSSGGTEGLVMNSDILGATTEVLIEDSDSAGP	-0.03316
ZNF576 (protein, UniProt Q9H609 1-170, looked up) Zinc finger protein 576: MEDPNPEENMKQQDSPKERSPQSPGGNICHLGAPKCTRCLITFADSKFQERHMKREHPADFVAQKLQGVLFICFTCARSFPSSKALITHQRSHGPAAKPTLPVATTTAQPTFPCPDCGKTFGQAVSLRRHRQMHEVRAPPGTFACTECGQDFAQEAGLHQHYIRHARGEL	-0.3795
CDKN2C (protein, UniProt P42773 1-168, looked up) Cyclin-dependent kinase 4 …: MAEPWGNELASAAARGDLEQLTSLLQNNVNVNAQNGFGRTALQVMKLGNPEIARRLLLRGANPDLKDRTGFAVIHDAARAGFLDTLQTLLEFQADVNIEDNEGNLPLHLAAKEGHLRVVEFLVKHTASNVGHRNHKGDTACDLARLYGRNEVVSLMQANGAGGATNLQ	-0.5488
